This is an account of results in PMC5491343 (SLAS discovery, 2016).

Square brackets hold non-standard residues; d marks the D form. Ends that are not written are not given here. Peptide text beside a SMILES is read from it. * marks the point of attachment. X1 = CN(C)c1ccc2c(-c3ccc(C(=O)NCCCCCN4C(=O)CC(*)C4=O)cc3C(=O)[O-])c3ccc(=[N+](C)C)cc-3oc2c1; pY = N[C@@H](Cc1ccc(OP(=O)(O)O)cc1)C(=O)O

Assay [1] addresses 2pY ITAM peptide ITAM (Homo sapiens) (UniProt P20963). To be noted: cited from earlier work.
Assay [2] addresses T1, isolated tandem SH2 domains of ZAP-70 (Homo sapiens, UniProt P43403).
T1 sequence (P43403 1-259 limits assumed): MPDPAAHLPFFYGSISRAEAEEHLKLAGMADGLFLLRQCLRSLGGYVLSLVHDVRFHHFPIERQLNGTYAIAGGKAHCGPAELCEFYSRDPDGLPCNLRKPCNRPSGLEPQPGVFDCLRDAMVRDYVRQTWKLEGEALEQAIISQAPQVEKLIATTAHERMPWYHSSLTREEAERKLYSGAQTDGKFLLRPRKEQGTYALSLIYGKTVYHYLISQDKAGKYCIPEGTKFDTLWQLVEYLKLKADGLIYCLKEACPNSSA
The assay can be described thus: Fluorescence polarization assay with the isolated tandem SH2 unit. The assay is classed as binding. To be noted: data not shown. In general terms: Polarisation of emitted light reports the rotation of a fluorescent probe.

The next assay has as its target T2, ZAP-70 (Homo sapiens, UniProt P43403).
T2 sequence (P43403 1-606): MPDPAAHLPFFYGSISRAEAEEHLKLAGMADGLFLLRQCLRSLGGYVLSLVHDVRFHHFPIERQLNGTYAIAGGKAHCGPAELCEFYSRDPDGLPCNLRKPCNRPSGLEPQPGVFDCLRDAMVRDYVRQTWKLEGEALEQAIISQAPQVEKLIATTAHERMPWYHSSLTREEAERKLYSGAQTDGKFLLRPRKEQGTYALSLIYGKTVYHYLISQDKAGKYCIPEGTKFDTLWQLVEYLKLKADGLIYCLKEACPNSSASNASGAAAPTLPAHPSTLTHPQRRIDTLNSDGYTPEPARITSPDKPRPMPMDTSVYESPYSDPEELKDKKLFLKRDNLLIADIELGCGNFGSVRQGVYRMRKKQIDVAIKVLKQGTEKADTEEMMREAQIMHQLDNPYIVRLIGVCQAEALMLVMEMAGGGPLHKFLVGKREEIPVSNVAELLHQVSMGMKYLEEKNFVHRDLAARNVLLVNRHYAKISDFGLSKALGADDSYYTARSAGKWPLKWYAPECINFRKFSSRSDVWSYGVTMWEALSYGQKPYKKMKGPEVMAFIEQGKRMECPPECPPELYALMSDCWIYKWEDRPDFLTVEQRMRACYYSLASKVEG
The assay can be described thus: TR-FRET ZAP-70:2pY binding / inhibition assay. To be noted: read-out: KD, ZAP-70 binding to AlexaFluor488-2pY. (In TR-FRET formats the signal depends on donor and acceptor labels being close together.)

A further assay deals with ZAP-Src chimera. The experiment in a line: Fluorescence polarization 2pY binding to ZAP-Src chimera. The note with it: read-out: binding constant for 2pY peptide and the ZAP-Src chimera; FP, TAMRA-2pY.
For assay [3], the target named is T3, ZAP-70 (zeta-associated protein of 70 kDa), construct spanning residues 1-606, wild type (UniProt P43403 1-606).
T3 sequence (looked up): T2 sequence (P43403 1-606)
The assay can be described thus: fluorescence polarisation.

Another assay concerns the target T4, ZAP-70 Y315F/Y319F (UniProt P43403 1-619, Y315F | Y319F).
T4 sequence (looked up): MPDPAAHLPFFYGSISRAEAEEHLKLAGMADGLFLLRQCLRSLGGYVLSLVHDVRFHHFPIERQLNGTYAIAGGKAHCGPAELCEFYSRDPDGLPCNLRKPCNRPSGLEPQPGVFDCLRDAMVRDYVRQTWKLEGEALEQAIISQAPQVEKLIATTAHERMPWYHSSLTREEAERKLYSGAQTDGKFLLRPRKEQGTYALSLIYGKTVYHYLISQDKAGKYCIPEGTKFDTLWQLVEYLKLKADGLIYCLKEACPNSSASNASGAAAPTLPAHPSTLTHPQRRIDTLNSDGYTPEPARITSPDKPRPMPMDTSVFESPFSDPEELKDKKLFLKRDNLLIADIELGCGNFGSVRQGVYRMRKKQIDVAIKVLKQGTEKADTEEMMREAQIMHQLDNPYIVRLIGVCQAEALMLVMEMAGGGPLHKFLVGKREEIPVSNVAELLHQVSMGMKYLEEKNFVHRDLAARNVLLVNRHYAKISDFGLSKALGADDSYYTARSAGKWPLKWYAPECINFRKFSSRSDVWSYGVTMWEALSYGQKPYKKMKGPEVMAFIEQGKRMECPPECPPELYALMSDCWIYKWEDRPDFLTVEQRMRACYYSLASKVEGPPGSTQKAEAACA
The experiment in a line: fluorescence polarisation.

With ZAP-70 (from UniProt P43403), in assay [1], the Kd is 76.6 nM.
In the case of “2pY: fluorescently labeled doubly phosphorylated ITAM peptide of the ζ chain (CGNQLpYNELNLGRREEpYDVLD) (C(TAMRA C5 maleimide)GNQL[pY]NELNLGRREE[pY]DVLD)”, in assay [2], the “dissociation constant, tandem SH2 unit and 2pY peptide” value is “nearly identical to the Src-ZAP fusion protein”. Also, in the assay with ZAP-70, the Kd was found to be 55.4 ± 7.1 nM.
Take `CC(C)C[C@H](NC(=O)[C@H](CC(N)=O)NC(=O)[C@H](CC(C)C)NC(=O)[C@H](CCC(=O)O)NC(=O)[C@H](CC(N)=O)NC(=O)[C@H](Cc1ccc(OP(=O)(O)O)cc1)NC(=O)[C@H](CC(C)C)NC(=O)[C@H](CCC(N)=O)NC(=O)[C@H](CC(N)=O)NC(=O)CNC(=O)[C@@H](N)CSC1CC(=O)N(CCCCCNC(=O)c2ccc(-c3c4ccc(=[N+](C)C)cc-4oc4cc(N(C)C)ccc34)c(C(=O)[O-])c2)C1=O)C(=O)NCC(=O)N[C@@H](CCCNC(=N)N)C(=O)N[C@@H](CCCNC(=N)N)C(=O)N[C@@H](CCC(=O)O)C(=O)N[C@@H](CCC(=O)O)C(=O)N[C@@H](Cc1ccc(OP(=O)(O)O)cc1)C(=O)N[C@@H](CC(=O)O)C(=O)N[C@H](C(=O)N[C@@H](CC(C)C)C(=O)N[C@@H](CC(=O)O)C(=O)O)C(C)C` (stereo partly drawn) [TAMRA-2pY] (H-C(X1)GNQL[pY]NELNLGRREE[pY]DVLD-OH; N-terminus and C-terminus assumed): the Kd on ZAP-Src chimera amounted to 15.8 ± 1.3 nM.

B1: TAMRA-labeled ITAM 2pY peptide (CGNQLpYNELNLGRREEpYDVLD), from the first ITAM of the T-cell receptor zeta chain (peptide)
peptide: C(TAMRA C5 maleimide)GNQL[pY]NELNLGRREE[pY]DVLD
Regarding B1, the values for the Kd (in assay [3]; with ZAP-70 Y315F/Y319F) were 45.7 ± 4.7 nM and 82.2 ± 5.6 nM, respectively.
